To fix the notation:
B1: KLHL13 (parent)
chain: TGEFLKLPFERLAFVLSSNSLKHC

Data on 94 variants can be found in the supplement of paper PMC10567573.
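Further: lentivirally expressed fusions sorted by FACS into six bins by GFP to DsRed ratio, PSI derived from sequencing read proportions per bin multiplied by bin number.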

The variants in the data set derive from B1. In words: protein stability index of a GFP-peptide fusion (GPS, HEK-293T) (PSI 1-6); higher = more stable. The conditions noted are these: c terminus: a fixed tail appended.
In the case of TGEFLKLPFERLAFPLSSNSLKHC, the protein stability index stood at 2.53.

As to TGEFLKLPFERLAFQLSSNSLKHC, the protein stability index turned out to be 2.31.

TGEFLKLPFERLAFFLSSNSLKHC: the protein stability index worked out at 2.39.

TGEFLKLPFERLAFRLSSNSLKHC: the protein stability index was determined as 1.53.

In the case of TGEFLKLPFERLAFTLSSNSLKHC, the protein stability index was 1.59.

For TGEFLKLPFERLAFILSSNSLKHC, the protein stability index was 2.

As to TGEFLKLPFERLAFCLSSNSLKHC, the protein stability index is 2.21.

For the variant TGEFLKLPFERLAFMLSSNSLKHC, the protein stability index is 1.96.

For TGEFLKLPFERLAFGLSSNSLKHC, the protein stability index is 3.31.

Consider TGEFLKLPFERLAFHLSSNSLKHC, for which the protein stability index amounted to 2.27.

With TGEFLKLPFERLAFELSSNSLKHC, the protein stability index was determined as 1.78.

As for TGEFLKLPFERLAFALSSNSLKHC, the protein stability index was 1.84.

As to TGEFLKLPFERLAFNLSSNSLKHC, the protein stability index is 1.95.

TGEFLKLPFERLAFYLSSNSLKHC: the protein stability index was 1.06.

As to TGEFLKLPFERLAFDLSSNSLKHC, the protein stability index came to 1.82.

On to TGEFLKLPFERLAFWLSSNSLKHC, for which the protein stability index was 3.3.

Consider TGEFLKLPFERLAFLLSSNSLKHC, for which the protein stability index came out at 3.05.

As for TGEFLKLPFERLAFKLSSNSLKHC, the protein stability index came out at 1.81.

In the case of TGEFLKLPFERLAFSLSSNSLKHC, the protein stability index turned out to be 2.32.

On to TGEFLKLPFERLAFVLCSNSLKHC, for which the protein stability index turned out to be 5.02.

On to TGEFLKLPFERLAFVLESNSLKHC, for which the protein stability index was found to be 1.86.

For TGEFLKLPFERLAFVLKSNSLKHC, the protein stability index stood at 1.05.

On to TGEFLKLPFERLAFVLQSNSLKHC, for which the protein stability index is 1.72.

Consider TGEFLKLPFERLAFVLISNSLKHC, for which the protein stability index came to 1.71.

As for TGEFLKLPFERLAFVLRSNSLKHC, the protein stability index is 2.82.

For TGEFLKLPFERLAFVLYSNSLKHC, the protein stability index was 2.46.

Consider TGEFLKLPFERLAFVLLSNSLKHC, for which the protein stability index is 2.06.

Consider TGEFLKLPFERLAFVLWSNSLKHC, for which the protein stability index came to 3.66.

Regarding TGEFLKLPFERLAFVLASNSLKHC, the protein stability index came to 3.79.

As for TGEFLKLPFERLAFVLDSNSLKHC, the protein stability index came out at 1.06.

For TGEFLKLPFERLAFVLMSNSLKHC, the protein stability index came to 2.2.

TGEFLKLPFERLAFVLNSNSLKHC: the protein stability index amounted to 2.33.

TGEFLKLPFERLAFVLPSNSLKHC: the protein stability index came out at 1.7.

Turning to TGEFLKLPFERLAFVTSSNSLKHC, the protein stability index is 1.75.

TGEFLKLPFERLAFVDSSNSLKHC: the protein stability index is 2.37.

Regarding TGEFLKLPFERLAFVGSSNSLKHC, the protein stability index worked out at 2.23.

Regarding TGEFLKLPFERLAFVRSSNSLKHC, the protein stability index is 2.21.

As to TGEFLKLPFERLAFVNSSNSLKHC, the protein stability index amounted to 2.93.

Turning to TGEFLKLPFERLAFVPSSNSLKHC, the protein stability index was 2.33.

In the case of TGEFLKLPFERLAFVYSSNSLKHC, the protein stability index amounted to 1.93.

With TGEFLKLPFERLAFVKSSNSLKHC, the protein stability index was 2.65.

In the case of TGEFLKLPFERLAFVESSNSLKHC, the protein stability index turned out to be 2.42.

For TGEFLKLPFERLAFVVSSNSLKHC, the protein stability index was 3.18.

As to TGEFLKLPFERLAFVWSSNSLKHC, the protein stability index was 2.23.

As for TGEFLKLPFERLAFVMSSNSLKHC, the protein stability index amounted to 2.25.

As for TGEFLKLPFERLAFVCSSNSLKHC, the protein stability index worked out at 1.39.

Regarding TGEFLKLPFERLAFVISSNSLKHC, the protein stability index was 2.89.

For TGEFLKLPFERLAFVSSSNSLKHC, the protein stability index is 2.68.

As for TGEFLKLPFERLAFVASSNSLKHC, the protein stability index stood at 1.74.

For TGEFLKLPFERLAFVHSSNSLKHC, the protein stability index was determined as 1.89.

Take TGEFLKLPFERLAFVQSSNSLKHC: the protein stability index is 2.24.

On to TGEFLKLPFERLAPVLSSNSLKHC, for which the protein stability index was determined as 2.69.

As to TGEFLKLPFERLAGVLSSNSLKHC, the protein stability index came to 2.54.

TGEFLKLPFERLAQVLSSNSLKHC: the protein stability index turned out to be 1.66.

Consider TGEFLKLPFERLAVVLSSNSLKHC, for which the protein stability index is 1.13.

As for TGEFLKLPFERLADVLSSNSLKHC, the protein stability index was determined as 1.98.

In the case of TGEFLKLPFERLANVLSSNSLKHC, the protein stability index is 2.33.

As for TGEFLKLPFERLAEVLSSNSLKHC, the protein stability index is 2.33.

On to TGEFLKLPFERLACVLSSNSLKHC, for which the protein stability index worked out at 1.95.

In the case of TGEFLKLPFERLAHVLSSNSLKHC, the protein stability index is 1.8.

In the case of TGEFLKLPFERLAMVLSSNSLKHC, the protein stability index is 2.74.

On to TGEFLKLPFERLASVLSSNSLKHC, for which the protein stability index worked out at 2.21.

Regarding TGEFLKLPFERLAYVLSSNSLKHC, the protein stability index was 2.36.

Turning to TGEFLKLPFERLAWVLSSNSLKHC, the protein stability index was found to be 3.04.

In the case of TGEFLKLPFERLAAVLSSNSLKHC, the protein stability index came out at 1.42.

For the variant TGEFLKLPFERLALVLSSNSLKHC, the protein stability index was found to be 2.31.

TGEFLKLPFERLARVLSSNSLKHC: the protein stability index is 1.4.

Turning to TGEFLKLPFERLATVLSSNSLKHC, the protein stability index was 2.21.

With TGEFLKLPFERLAKVLSSNSLKHC, the protein stability index amounted to 1.79.

Take TGEFLKLPFERLAFVLSSDSLKHC: the protein stability index was found to be 1.56.

Take TGEFLKLPFERLAFVLSSCSLKHC: the protein stability index stood at 4.21.

For TGEFLKLPFERLNFVLSSNSLKHC, the protein stability index turned out to be 1.93.

TGEFLKLPFERLRFVLSSNSLKHC: the protein stability index was 1.85.

Turning to TGEFLKLPFERLMFVLSSNSLKHC, the protein stability index turned out to be 3.12.

Turning to TGEFLKLPFERLTFVLSSNSLKHC, the protein stability index turned out to be 2.76.

In the case of TGEFLKLPFERLKFVLSSNSLKHC, the protein stability index turned out to be 1.98.

Regarding TGEFLKLPFERLQFVLSSNSLKHC, the protein stability index is 2.26.

For the variant TGEFLKLPFERLPFVLSSNSLKHC, the protein stability index stood at 3.04.

For the variant TGEFLKLPFERLSFVLSSNSLKHC, the protein stability index was determined as 1.99.

For the variant TGEFLKLPFERLYFVLSSNSLKHC, the protein stability index stood at 3.93.

For TGEFLKLPFERLAFVLSYNSLKHC, the protein stability index was found to be 2.79.

Regarding TGEFLKLPFERLAFVLSVNSLKHC, the protein stability index was found to be 4.13.

As to TGEFLKLPFERLAFVLSENSLKHC, the protein stability index was 2.37.

Consider TGEFLKLPFERLAFVLSQNSLKHC, for which the protein stability index came out at 1.61.

Turning to TGEFLKLPFERLAFVLSANSLKHC, the protein stability index was 1.35.

Consider TGEFLKLPFERLAFVLSCNSLKHC, for which the protein stability index was found to be 3.11.

Take TGEFLKLPFERLAFVLSPNSLKHC: the protein stability index amounted to 2.64.

Consider TGEFLKLPFERLAFVLSHNSLKHC, for which the protein stability index worked out at 2.48.

As to TGEFLKLPFERLAFVLSLNSLKHC, the protein stability index worked out at 3.02.

Regarding TGEFLKLPFERLAFVLSFNSLKHC, the protein stability index amounted to 2.48.

TGEFLKLPFERLAFVLSKNSLKHC: the protein stability index worked out at 3.09.

In the case of TGEFLKLPFERLAFVLSDNSLKHC, the protein stability index was determined as 2.42.

For the variant TGEFLKLPFERLAFVLSNNSLKHC, the protein stability index was 1.98.

Consider TGEFLKLPFERLAFVLSWNSLKHC, for which the protein stability index was 2.81.
